Experimental data reported in patent US20240409645A1 (DUALYX, published 2024).
Positions count from the first letter of the chain named.

T1: human interleukin-2 receptor α-chain (human, UniProt P01589 22-240, limits assumed)
T1 construct: Recombinant human IL-2Rα protein, coated on the ELISA plate or amine-coupled to a CM5 chip; also called human IL-2Rα; hu IL-2R
T1 sequence: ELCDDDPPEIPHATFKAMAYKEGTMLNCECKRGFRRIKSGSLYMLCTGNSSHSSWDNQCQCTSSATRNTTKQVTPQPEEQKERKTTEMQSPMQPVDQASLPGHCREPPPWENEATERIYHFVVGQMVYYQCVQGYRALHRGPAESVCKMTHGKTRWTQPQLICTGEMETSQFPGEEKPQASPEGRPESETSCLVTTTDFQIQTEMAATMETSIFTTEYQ

T2: mouse IL-2Rα (mouse, UniProt P01590 22-236, limits assumed)
T2 construct: Recombinant mouse IL-2Rα protein, coated on the ELISA plate or amine-coupled to a CM5 chip; also called mo IL-2R; moIL2R-a
T2 sequence (looked up): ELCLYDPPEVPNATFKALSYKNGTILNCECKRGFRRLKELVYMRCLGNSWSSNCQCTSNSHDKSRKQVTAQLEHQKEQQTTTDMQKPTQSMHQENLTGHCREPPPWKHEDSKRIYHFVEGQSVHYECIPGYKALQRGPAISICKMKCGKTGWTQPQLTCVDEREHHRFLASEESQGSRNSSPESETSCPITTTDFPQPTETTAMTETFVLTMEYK

T3: human common cytokine receptor γ-chain (γc; IL-2Rγ; CD132), recombinant protein (human, UniProt P31785 23-262)
T3 construct: also called human IL-2R subunit CD132
T3 sequence: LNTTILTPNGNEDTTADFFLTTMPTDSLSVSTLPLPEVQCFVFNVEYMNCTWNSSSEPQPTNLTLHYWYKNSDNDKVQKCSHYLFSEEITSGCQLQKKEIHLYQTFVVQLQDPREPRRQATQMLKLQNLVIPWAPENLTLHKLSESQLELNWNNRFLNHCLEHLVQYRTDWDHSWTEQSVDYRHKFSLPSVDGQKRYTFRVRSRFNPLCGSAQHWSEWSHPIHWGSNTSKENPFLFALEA

T4: human interleukin-2 receptor α-chain (IL-2Rα; CD25), recombinant protein (human, UniProt P01589 22-240, limits assumed)
T4 construct: also called huIL2R-a; hIL-2RA
T4 sequence: T1 sequence

T5: mouse IL-2Rγ, recombinant protein (mouse, UniProt P34902 23-263, limits assumed)
T5 sequence (looked up): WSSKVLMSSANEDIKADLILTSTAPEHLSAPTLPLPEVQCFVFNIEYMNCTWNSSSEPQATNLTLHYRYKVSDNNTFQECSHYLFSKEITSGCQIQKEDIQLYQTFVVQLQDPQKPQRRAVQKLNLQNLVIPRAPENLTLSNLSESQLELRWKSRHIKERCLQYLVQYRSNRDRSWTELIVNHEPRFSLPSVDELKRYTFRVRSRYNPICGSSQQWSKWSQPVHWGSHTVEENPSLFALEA

T6: mouse IL-2Rα, recombinant protein (mouse, UniProt P01590 22-236, limits assumed)
T6 construct: also called moIL2R-a
T6 sequence (looked up): T2 sequence (looked up)

B1: FJ1427_P035MP05C12 (VHH)
VHH: EVQLVESGGGLVQAGDSLRLSCAASGFNFGWHAMGWFRQAPGKEREFVATITWTGRDTYYADSVRGRFTISKDNAKNTLFLQMSSLRPDDTGVYYCAKARERATWAYSEDDCDYWGQGTQVTVSS
notes: Tested as soluble VHH in a crude periplasmic extract (P.E.); CDR3 family 1; also called Clone nr
B2: FJ1427_P035MP05E12 (VHH)
VHH: B1 VHH with E1Q, V2L, N77D, S84N
notes: as for B1
B3: FJ1427_P035MP05F11 (VHH)
VHH: QVQLVESGGGSVQAGGSLRLSCAASGRTLYSSYGMAWFRQAPGKERDFVGSISRYGTYTSYADSVKDRFTISRDNAKSTVYLQMNNTKPEDTAVYYCAAYTYSGSFYSAVKTHRDEYQYWGQGTQVTVSS
notes: Tested as soluble VHH in a crude periplasmic extract (P.E.); CDR3 family 15; also called Clone nr; 470
B4: FJ1427_P035MP05D12 (VHH)
VHH: B3 VHH with V2L, A109T
notes: Tested as soluble VHH in a crude periplasmic extract (P.E.); CDR3 family 15; also called Clone nr
B5: FJ1427_P035MP05F12 (VHH)
VHH: QLQLVESGGGLVQAGGSLRLSCLASGLTFDGYAIGWFRQAPGKELEGVSYITGSDGSSYYADSVKGRFTISSDNAKNTVYLHMNSLKPDDAAVYYCAIDHLGSRGGYHSSWWRSSDMDLWGKGTLVTVSS
notes: Tested as soluble VHH in a crude periplasmic extract (P.E.); CDR3 family 4; also called Clone nr
B6: 34-MP04A12 VHH (periplasmic extract) (VHH)
VHH: QVQLVESGGGLVQAGSSLRLSCAASGRTLSRLAMGWFRQAPGKEREFVAVNSWGGDTFYADSVEGRFTYSRDNAKSAVYLQMNSLQPEDTAVYYCAAAPTSFATTAYSSSNSYAYWGQGAQVTVSS
notes: soluble VHH in periplasmic extract
B7: 37-MP07F09 VHH (periplasmic extract) (VHH)
VHH: QVQLVESGGGLVQAGGSLRLSCAASGRTLSRYAMGWFRQAPGKEREYVAIDSWGGDTFYADSVEGRFTFSRDNAKNEVYLQMNSLQPEDTAVYYCAGAPTSFATTAYSSSNSYRYWGQGTQVTVSS
notes: as for B6
B8: 38-MP07A11 VHH (periplasmic extract) (VHH)
VHH: QVQLVESGGGLVQAGGSLRLSCAASGRSLSRDAMGWFRQAPGKEREFVAVMSWGGDTFYTDSVEGRFTFSRDNAKNAVYLEMNDLQPEDTAVYYCAAAPTSFATTAYSSSNSYSYWGRGTQVTVSS
notes: as for B6
B9: 11-MP05H04 VHH (periplasmic extract) (VHH)
VHH: QLQLVESGGGLVQAGGSLRLSCAASGLTFEGYAIGWFRQAPGKEREGVSYITGSDGTTYYINSVKGRFTISSDNAKSTVYLQMNTLKPEDTAVYYCAVDRLGSQGRYASAWWRSGDMDLWGKGTQVTVSS
notes: as for B6
B10: 4-MP01F04 VHH (periplasmic extract) (VHH)
VHH: QVQLVESGGGLVQAGGSLRLSCAASGGTFRTRNMGWFRRAPGKEREFVAAVSWNVDNKLYADSVKGRFTISRDNGRNMVYLQMNSLKPEDTAVYYCAADNIPLSSDMRPTATEYDYWGQGTQVTVSS
notes: as for B6
B11: 12-MP05B12 VHH (periplasmic extract) (VHH)
VHH: QVQLVESGGGLVQAGGSLRLSCAASGFTFDGYAIGWFRQAPGKEREGVSYITGSDGSTYYADSVKGRFTISSNNAKNTVYLHMNSLKPDDAAVYYCAIDRLGSRGAYVPIWWRSSDMDLWGKGTLVTVSS
notes: as for B6
B12: 9-MP05G01 VHH (periplasmic extract) (VHH)
VHH: EVQLVESGGGLVQAGGSLRLSCAASGGSIYTYNMGWFRQAPGKEREFVAGTLWSGGDSVYADFAKGRFTLSRENAKNTLYLQMNSLKPEDTATYYCAIDPLSLTSDWRVDELSSWGKGTLVTVSS
notes: as for B6

Target: T1, human interleukin-2 receptor α-chain
Assay: SPR (Biacore 3000) off-rate ranking, periplasmic extract over immobilised human IL-2Rα
Protocol: SPR was performed to determine dissociation rates using Biacore 3000 instrument (GE Healthcare). Briefly, human and mouse IL-2R proteins were immobilized on carboxylmethyl dextran sensor chip (CM5) at approximately 2500 RUs using amine coupling in acetate buffer (GE Healthcare). The VHH-containing P.E. were loaded with a flow rate of 30 uL/min and the off-rates were measured over a 120s period.

| koff | Binder |
| --- | --- |
| 0.000874 s⁻¹ | B1 |
| 0.000273 s⁻¹ | B2 |
| 0.00173 s⁻¹ | B3 |
| 0.00235 s⁻¹ | B4 |
| 0.000469 s⁻¹ | B5 |

Target: T2, mouse IL-2Rα
Assay: SPR (Biacore 3000) off-rate ranking, periplasmic extract over immobilised mouse IL-2Rα

| koff | Binder |
| --- | --- |
| 0.00463 s⁻¹ | B5 |

Target: T3, human common cytokine receptor γ-chain …
Assay: P.E. off-rate SPR
Summary of the method: (§1)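 Recombinant receptor was amine-coupled in acetate buffer onto a CM5 carboxymethyl dextran chip at approximately 2500 RU. VHH-containing periplasmic extracts were injected at 30 uL/min, and dissociation was followed for 120s to give off-rates.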

| koff | Binder |
| --- | --- |
| 0.000333 s⁻¹ | B6 |
| 0.00126 s⁻¹ | B7 |
| 0.00235 s⁻¹ | B8 |

Target: T4, human interleukin-2 receptor α-chain …
Assay: P.E. off-rate SPR
Summary of the method: as §1

| koff | Binder |
| --- | --- |
| 0.0012 s⁻¹ | B9 |
| 0.000258 s⁻¹ | B10 |
| 0.000222 s⁻¹ | B11 |
| 0.000169 s⁻¹ | B12 |

Target: T5, mouse IL-2Rγ, recombinant protein
Assay: P.E. off-rate SPR
Summary of the method: as §1

| koff | Binder |
| --- | --- |
| 0.00809 s⁻¹ | B6 |
| 0.007 s⁻¹ | B7 |
| 0.0149 s⁻¹ | B8 |

Target: T6, mouse IL-2Rα, recombinant protein
Assay: P.E. off-rate SPR
Summary of the method: as §1

| koff | Binder |
| --- | --- |
| 0.00163 s⁻¹ | B9 |
| 0.256 s⁻¹ | B10 |
| 0.000547 s⁻¹ | B11 |
| 0.0442 s⁻¹ | B12 |

Target: T1, human interleukin-2 receptor α-chain
Assay: binding ELISA, periplasmic extract 1:5 on coated human IL-2Rα, anti-c-myc detection
Protocol: In a binding ELISA, human or mouse IL-2Rα, IL-2Rβ and IL-2Rγ proteins were coated directly on maxisorp microtiter plates overnight at 4° C. Free binding sites were blocked using 4% Marvel in PBS for 1 hour. Next, 1:5 dilution of P.E. in 1% Marvel/PBS were added to wells and incubated for 1 hour. […] Binding specificity was determined based on O.D. at 450 nm values compared to negative controls.

| PE binding ELISA (OD450 nm) | Binder |
| --- | --- |
| 2.4 OD450 | B1 |
| 2.15 OD450 | B2 |
| 2.27 OD450 | B3 |
| 2.39 OD450 | B4 |
| 2.19 OD450 | B5 |

Target: T3, human common cytokine receptor γ-chain …
Assay: P.E. binding ELISA
Summary of the method: (§2)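 Plates were coated overnight at 4° C with human or mouse IL-2R chain protein, and free sites blocked for 1 hour in 4% Marvel in PBS. Periplasmic extracts diluted 1:5 in 1% Marvel/PBS then bound for 1 hour, with specificity assessed from 450 nm absorbance relative to negative controls.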

| OD450 nm | Binder |
| --- | --- |
| 1.3 OD450 nm | B6 |
| 1.81 OD450 nm | B7 |
| 1.31 OD450 nm | B8 |

Target: T4, human interleukin-2 receptor α-chain …
Assay: P.E. binding ELISA
Summary of the method: as §2

| OD450 nm | Binder |
| --- | --- |
| 2.22 OD450 nm | B9 |
| 2.49 OD450 nm | B10 |
| 2.14 OD450 nm | B11 |
| 2.35 OD450 nm | B12 |

Target: T5, mouse IL-2Rγ, recombinant protein
Assay: P.E. binding ELISA
Summary of the method: as §2

| OD450 nm | Binder |
| --- | --- |
| 3.6 OD450 nm | B6 |
| 1.49 OD450 nm | B7 |
| 0.173 OD450 nm | B8 |

Target: T6, mouse IL-2Rα, recombinant protein
Assay: P.E. binding ELISA
Summary of the method: as §2

| OD450 nm | Binder |
| --- | --- |
| 0.163 OD450 nm | B9 |
| 0.046 OD450 nm | B10 |
| 0.936 OD450 nm | B11 |
| 0.047 OD450 nm | B12 |
